Patent US20220259593A1, “CONTROL OF MAMMALIAN GENE DOSAGE USING CRISPR” (The Regents of the University of California, priority 2019, published 2022)

Tested on: K562 CRISPRi cells
Experiment: Constant region variant library pooled growth screen, K562
Assay type: cell-based, human
Conditions: sgRNA constant region variants
Procedure, shortened: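 Growth screens in K562 CRISPRi cells were harvested 4-8 days post-selection at >2000× library coverage. Each variant's phenotype was referenced to the unmodified constant region with the same targeting sequence.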

[1] = relative to the original, un-modified constant region cr995 (= 1)
[2] = activity relative to the un-modified constant region cr995
[3] = activity relative to the original, un-modified constant region cr995

B1: cr670 (nucleic acid)
guide: GTTTAAGAGCTAAGCTGGAAACAGCATAGCAAGTTTAAATAAGGCTAGTCCGTTATCAACTTGAAAAAGGGGCACCGAGTCGGTGCT
modifications: listed as DNA, chemistry not fully specified
- Mean relative activity [1]: 0.9903

B2: cr478 (nucleic acid)
guide: GTTTAAGAGCTAAGCTGGAAACAGCATGGCAAGTTTAAATAAGGCTAGTCCGTTATCAACTTGAAAAAGTGGCACCGAGTCGGTGCT
modifications: listed as DNA, chemistry not fully specified
- Mean relative activity [1]: 0.9898

B3: cr609 (nucleic acid)
guide: GTTTAAGAGCTAAGCTGGAAACAGCATAGCATGTTTAAATAAGGCTAGTCCGTTATCAACTTAAAAAAGTGGCACCGAATCGGTGCT
modifications: listed as DNA, chemistry not fully specified
- Mean relative activity [1]: 0.9895

B4: cr353 (nucleic acid)
guide: GTTTAAGAGCTAAGCTGGAAACAGCATAGCAAGTTTAAATAAGGCTAGTCCGTTATCAACTAGAAAAAGTGGCACCGAGTCGGTGCT
modifications: listed as DNA, chemistry not fully specified
- Mean relative activity [1]: 0.9885

B5: cr669 (nucleic acid)
guide: GTTTAAGAGCTAAGCTGGAAACAGCATAGCAAGTTTAAATAAGGCTAGTCCGTTATCAACTTGAAAAAGTGGCACCGAATCGGTGCT
modifications: listed as DNA, chemistry not fully specified
- Mean relative activity [1]: 0.9881

B6: cr973 (nucleic acid)
guide: GTTTAAGAGCTAAGCTGGAAACAGCATAGCAAGTTTAAATAAGGCTAGTCCGTTATCAACTTAAAAAAGTGGCACCGAGTCGGTGCT
modifications: listed as DNA, chemistry not fully specified
- Mean relative activity [1]: 0.9873

B7: cr671 (nucleic acid)
guide: GTTTAAGAGCTAAGCTGGAAACAGCATAGCAAGTTTAAATAAGGCTAGTCCGTTATCAACTTGAAAAGGTGGCACCGAGTCGGTGCT
modifications: listed as DNA, chemistry not fully specified
- Mean relative activity [1]: 0.9864

B8: cr258 (nucleic acid)
guide: GTTTAAGAGCTAAGCTGGAAACAGCATAGCAAGTTTAAATAAGGCTAGACCGTTATCAACTTGAAAAAGTGGCACCGAGTCGGTGCT
modifications: listed as DNA, chemistry not fully specified
- Mean relative activity [1]: 0.9863

B9: cr340 (nucleic acid)
guide: GTTTAAGAGCTAAGCTGGAAACAGCATAGCAAGTTTAAATAAGGCTAGTCCGTTATCAACTGGAAAAAGTGGCACCGAGTCGGTGCT
modifications: listed as DNA, chemistry not fully specified
- Mean relative activity [2]: 0.9853

B10: cr578 (nucleic acid)
guide: GTTTAAGAGCTAAGCTGGAAACAGCATAGCGAGTTTAAATAAGGCTAGTCCGTTATCAACTTGATAAAGTGGCACCGAGTCGGTGCT
modifications: listed as DNA, chemistry not fully specified
- Mean relative activity [2]: 0.9852

B11: cr855 (nucleic acid)
guide: GTTTAAGAGCTAAGCTGGAAACAGCATAGCAAGTTTAAATAAGGCCAGTCCGTTCTCAACTTGACAAAGTGGCACCGAGTCGGTGCT
modifications: listed as DNA, chemistry not fully specified
- Mean relative activity [2]: 0.9849

B12: cr346 (nucleic acid)
guide: GTTTAAGAGCTAAGCTGGAAACAGCATAGCAAGTTTAAATAAGGCTAGTCCGTTATCACATTGAAAAATGGTCACCGAGTCGGTGAT
modifications: listed as DNA, chemistry not fully specified
- Mean relative activity [2]: 0.9847

B13: cr368 (nucleic acid)
guide: GTTTAAGAGCTAAGCTGGAAACAGCATAGCAAGTTTAAATAAGGCTAGTCCGTTATCACATTGAAAAATGGGCACCGAGTCGGTGCT
modifications: listed as DNA, chemistry not fully specified
- Mean relative activity [2]: 0.9836

B14: cr563 (nucleic acid)
guide: GTTTAAGAGCTAAGCTGGAAACAGCATAGCAAGTTTAAATAAGGCTAGTCCGTTATCAAGCTGAAAAGCTGGCACCGAGTCGGTGCT
modifications: listed as DNA, chemistry not fully specified
- Mean relative activity [3]: 1.068

B15: cr251 (nucleic acid)
guide: GTTTAAGAGCTAAGCTGGAAACAGCATAGCAAGTTTAAATAAGGCTAGTCCGTGATCAACTTGTAAAAGTGGCACCGACTCGGTGCT
modifications: listed as DNA, chemistry not fully specified
- Mean relative activity [2]: 0.9836

B16: cr270 (nucleic acid)
guide: GTTTAAGAGCTAAGCTGGAAACAGCATAGCAAGTTTAAATAAGGCTAGTCCGTTATCATCCTGAAAAGGAGGCACTGAGTCAGTGCT
modifications: listed as DNA, chemistry not fully specified
- Mean relative activity [2]: 0.9835

B17: cr970 (nucleic acid)
guide: GTTTAAGAGCTAAGCTGGAAACAGCATAGCAAGTTTAAATAAGGCTAGTCCGTTATCAACTTGTTAAAGTGGCACCGAGTCGGTGCT
modifications: listed as DNA, chemistry not fully specified
- Mean relative activity [2]: 0.9826

B18: cr843 (nucleic acid)
guide: GTTTAAGAGCTAAGCTGGAATCAGCATAGCAAGTTTAAATAAGGCTAGTCCGTTATCAACTTGAAAAAGTGGCACCGAGTCGGTGCT
modifications: listed as DNA, chemistry not fully specified
- Mean relative activity [2]: 0.9823

B19: cr918 (nucleic acid)
guide: GTTTAAGAGCTAAGCTGGAAACAGCATAGCAAGTTTAAATAAGGCTAGTCCGTTATCATCTTGAAAAAGAGGCACCGAGTCGGTGCT
modifications: listed as DNA, chemistry not fully specified
- Mean relative activity [2]: 0.982

B20: cr906 (nucleic acid)
guide: GTTTAAGAGCTAAGCTGGAAACAGCATAGCAAGTTTAAATAAGGCTAGTCCGTTATCAACTTGAGAAAGTGGCAGCGAGTCGCTGCT
modifications: listed as DNA, chemistry not fully specified
- Mean relative activity [2]: 0.9817

B21: cr782 (nucleic acid)
guide: GTTTAAGAGCTAAGCTGGAAACAGCATAGCAAGTTTAAATAAGGCTAGTCCGTTATCAACTTTAGAAAGTGGCACCGAGTCGGTGCT
modifications: listed as DNA, chemistry not fully specified
- Mean relative activity [2]: 0.9816

B22: cr969 (nucleic acid)
guide: GTTTAAGAGCTAAGCTGGAAACAGCATAGCAAGTTTAAATAAGGCTAGTCCGTTATCATCTTGAGAAAGAGGCACCGAGTCGGTGCT
modifications: listed as DNA, chemistry not fully specified
- Mean relative activity [2]: 0.9815

B23: cr747 (nucleic acid)
guide: GTTTAAGAGCTAAGCTGGAAACAGCATAGCAAGTTTAAATAAGGCTAGTCCGTTATCACCTTGAGAAAGGGGCACCGAGTCGGTGCT
modifications: listed as DNA, chemistry not fully specified
- Mean relative activity [2]: 0.9812

B24: cr926 (nucleic acid)
guide: GTTTAAGAGCTAAGCTGGAAACAGAATAGCAAGTTTAAATAAGGCTAGTCCGTTATCAACTTGAAAAAGTGGCACCGAGTCGGTGCT
modifications: listed as DNA, chemistry not fully specified
- Mean relative activity [2]: 0.9811

B25: cr238 (nucleic acid)
guide: GTTTAAGAGCTAAGCTGGAAACAGCATAGCAAGTTTAAATAAGGCTAGTCCGTTATCAACTTGAAAAAGTGGCTTCGAGTCGAAGCT
modifications: listed as DNA, chemistry not fully specified
- Mean relative activity [2]: 0.9809

B26: cr754 (nucleic acid)
guide: GTTTAAGAGCTAAGCTGGAAACAGCATAGCAAGTTTAAATAAGGCTAGTCCGTTATCAACTTTAAAAAGTGGCACCGAGTCGGTGCT
modifications: listed as DNA, chemistry not fully specified
- Mean relative activity [2]: 0.9804

B27: cr176 (nucleic acid)
guide: GTTTAAGAGCTAAGCTGGAAACAGCATAGCAAGTTTAAATAAGGCTAGTCCGTTATCAGCTTGAAAAAGCGGCACCGAGTCGGTGCT
modifications: listed as DNA, chemistry not fully specified
- Mean relative activity [3]: 1.067

B28: cr811 (nucleic acid)
guide: GTTTAAGAGCTAAGCTGGAAACAGTATAGCAAGTTTAAATAAGGCTAGTCCGTTATCAACTTGAAAAAGTGGCACCGAGTCGGTGCT
modifications: listed as DNA, chemistry not fully specified
- Mean relative activity [2]: 0.9803

B29: cr624 (nucleic acid)
guide: GTTTAAGAGCTAAGCTGGAAACAGCATAGCAAGTTTAAATAAGGCTAGTCCGTTGTCAACTTGAAAAAGTGGCACCGAGTCGGTGCT
modifications: listed as DNA, chemistry not fully specified
- Mean relative activity [2]: 0.9799

B30: cr226 (nucleic acid)
guide: GTTTAAGAGCTAAGCTGGAAACAGCATAGCAAGTTTAAATAAGGCTAGTCCGTTATCAACTTGAAAAAGTGGCCACGAGTCGTGGCT
modifications: listed as DNA, chemistry not fully specified
- Mean relative activity [2]: 0.9795
